Experiments:
[1] = molecular target: T1, human ferroportin (SLC40A1) fused in frame with the GFP protein, stably expressed in HEK293 cells (human) (UniProt Q9NP59); assay: cell-based or functional assay
T1 sequence (looked up): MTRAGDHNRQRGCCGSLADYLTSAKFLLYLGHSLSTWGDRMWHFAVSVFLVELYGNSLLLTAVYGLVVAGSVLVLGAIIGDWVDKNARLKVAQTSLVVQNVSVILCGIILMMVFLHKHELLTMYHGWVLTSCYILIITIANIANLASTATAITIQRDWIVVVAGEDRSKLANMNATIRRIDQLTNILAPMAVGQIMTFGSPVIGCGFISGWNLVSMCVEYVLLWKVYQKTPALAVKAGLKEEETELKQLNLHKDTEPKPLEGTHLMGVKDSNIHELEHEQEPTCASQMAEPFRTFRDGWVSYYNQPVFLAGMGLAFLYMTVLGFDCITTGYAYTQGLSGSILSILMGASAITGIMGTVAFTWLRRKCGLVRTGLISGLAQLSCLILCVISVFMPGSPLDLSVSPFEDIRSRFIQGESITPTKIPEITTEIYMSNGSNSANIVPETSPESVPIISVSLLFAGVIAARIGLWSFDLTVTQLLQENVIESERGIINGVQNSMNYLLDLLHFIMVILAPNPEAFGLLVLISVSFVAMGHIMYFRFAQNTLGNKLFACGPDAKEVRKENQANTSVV

[2] = molecular target: T2, human ferroportin (Homo sapiens, UniProt Q9NP59); assay: FPN internalization assay (FPN activity assay), loss of ferroportin-GFP fluorescence; type: cell-based; details: Table 5 reference compounds; value in μM; read-out: Potency EC50
T2 sequence (Q9NP59 1-571): T1 sequence (looked up)
Protocol: Peptide analogues were tested in vitro for induction of internalization of the human ferroportin protein. Following internalization, the ferroporin protein is degraded. The assay used (FPN activity assay) measures a decrease in fluorescence of the receptor.
The cDNA encoding the human ferroportin (SLC40A1) was cloned from a cDNA clone from Origene (NM_014585). The DNA encoding the ferroportin was amplified by PCR using primers also encoding terminal restriction sites for subcloning, but without the termination codon. The ferroportin receptor was subcloned into a mammalian GFP expression vector containing a neomycin (G418) resistance marker in such that the reading frame of the ferroportin was fused in frame with the GFP protein. The fidelity of the DNA encoding the protein was confirmed by DNA sequencing. HEK293 cells were used for transfection of the ferroportin-GFP receptor expression plasmid. The cells were grown according to standard protocol in growth medium and transfected with the plasmids using Lipofectamine (manufacturer's protocol, Invitrogen). […] The cells were propagated and frozen in aliquots.
Compound was added to desired final concentration for at least 18 hours in the incubator. […] Compound was added to desired final concentration for at least 18 hours but no more than 24 hours in the incubator.

Work on “RI-Mini Hepcidin, Hy-DPhe-DIle-DCys-DIle-DPro-DPhe-DHis-DThr-DAsp-NH2 (peptide)” yielded a Potency EC50 (nM) [1] of over 10000 nM.

`CC[C@@H](C)[C@@H](NC(=O)[C@H](N)Cc1ccccc1)C(=O)N[C@H](CS)C(=O)N[C@@H](C(=O)N1CCC[C@@H]1C(=O)N[C@H](Cc1ccccc1)C(=O)N[C@H](Cc1c[nH]cn1)C(=O)N[C@@H](C(=O)N[C@H](CC(=O)O)C(N)=O)[C@H](C)O)[C@H](C)CC` [RI-Mini Hepcidin, Hy-DPhe-DIle-DCys-DIle-DPro-DPhe-DHis-DThr-DAsp-NH2] gave an EC50 [2] of over 10 µM.

B1: Mini-Hepcidin 1-9, Hy-…-NH2 (peptide, from a related filing)
peptide: H-DTHFPICIF-NH2
Molecule B1 has a Potency EC50 [1] of 0.712 µM.

Source: patent US20250361280A1 (Protagonist Therapeutics, Inc., priority 2022, published 2025)
